From a protein production outcome set (Wang et al. 2014) come the findings set out here.

This data set can be described thus: label from the status in PepcDB records.
“MNIAISGASGFIGKHLTEYLTEAGHRVVPLGRPMFREGTSGHLIQALSHCDVIINLAGAPIGKRWTPEYKKELYDSRIKVTHCIIRAMDAVKTKPRLMISASAVGYYPEEGTFDEYTNTRGSGFLAELCYAWEKEARRCPSQTRLVITRFGIVLSPDGGAMEQMLRPLRITRVAGVIGPGTQPFPWIAIQDLCRAMEFIIRHEEASGVFNLVAPQQVSQYAFTQAMAARYHAWMKVVVPRWFFRMRYGEAASFLASGQNVRPTRLLEAGFRFAKPTIEDFFEGTDHAVVDRLDLHRYMGTWYEIARFDHRFERGLSEVTATYTLMPDGTVRVENRGCKHKKPYDVCKTAEGRAKIPDPSQPGKLKVSFFLSFYSDYYVLELDQDEYNYALIGSSSDKYLWILSRAPILPEEIKKKLLDAATRRGYDVKKLIWVEQREKKIM”: the protein production entry is “failed”.
The result for “MNIALARSVVGERLRLLAERMGLVAKRLQDMSQDDTPGRCTPEHCAIQVDSDDEIGDGARAFNQLIQALSLSIETETAVRTFTEMLVSELDVHQLTEQALALLLQHTGADGGAILIEVDGEIRVAASQGIGSAHTLANNDRVRSALRTERRHRVQLPEDLVVDGMLAQFRPKEVIIDPVRHKEVVLGAVVLASGQGFSAEDRNRLDVFERGLALALHNALLYDRLQTLAALDPLTGAYNRRFGMARLREEFRRAVRLNLPLGILMFDIDYFKRINDTYGHLAGDRVLSRVAKTARSVLREGDVLIRYGGEEFIAVLPAASLHDLEYVGERLRHQVDDLMLMDGDQSMHVTVSIGAAAYPDTDVEDETALVDRADKALYAAKSDGRNRLVIS” reads “failed”; that for “MNIAVQTLRALAETIVTPSYLLTIIVIMIMFYMKNRRISFMQRMIIGQNIESPFELTLSQITLSIIAGALGSVILSYLGVVFKDNSAIVLLFLISVILMFAGSRFLCFSYSGSILGIISIVIQFLSVNKIADVSSIKFLEIDVVMIMSLVGVLHIVEGIIVMIDGKSGAIPVFTNREDKIIGGFAFKRYWVLPITLLFLLNNADLNGTVNVATPDSWPIIRTAFTVIGKSAVISFMMFYGIIGYKSVTFTKSKRKKTFMSGMAIALYGAVLLGLSQVLKHNLEQQIILCLLAPLLHETMLRLEAYSEVKGKPKFVSGEDGVMVLDVAPNSQAYEMGIKSGDLLLEINDTKIFSEEDITRSIQNMSKYMWFKIKDVQGKLNEISYDKFDRNKKLGAIFVPKGMPKESKIVKFEHKSFDDILDNVNKEDENKKDQK”, “failed”.
For the sequence “MNIEEFTSGLAEKGISLSPRQLEQFELYYDMLVEWNEKINLTSITEKKEVYLKHFYDSITAAFYVDFNQVNTICDVGAGAGFPSLPIKICFPHLHVTIVDSLNKRITFLEKLSEALQLENTTFCHDRAETFGQRKDVRESYDIVTARAVARLSVLSELCLPLVKKNGLFVALKAASAEEELNAGKKAITTLGGELENIHSFKLPIEESDRNIMVIRKIKNTPKKYPRKPGTPNKSPIEG”, the protein production result is reported as “not failed”.
The result for “MNIEIKDTLISEEQLQEKVKELALQIERDFEGEEIVVIAVLKGSFVFAADLIRHIKNDVTIDFISASSYGNQTETTGKVKLLKDIDVNITGKNVIVVEDIIDSGLTLHFLKDHFFMHKPKALKFCTLLDKPERRKVDLTAEYVGFQIPDEFIVGYGIDCAEKYRNLPFIASVVTEESYNLKSR” reads “not failed”; that for “MNIFKKIKNLSAEFKQNWFQYLILFTSISILNQFVFIPLFRYITTFVLQAGAIPFISYSNLVIILSEHPFVVFFLLIELALLLFVIYSQFALIILFIKNNFALKASISEFGQCLRHFRLGSLLLLAIYFLLVIPFANVVFRTPLLAKIKIPQFIIDYMTRSGILLAILIIFYLVIFVLAFRFLLTLPIMVIYKTTTREAMKKSAFLMKKNWRKVIGFFVPLGILAIVIMAINVGGAYLLQLIWDTFPGKFALIMATINLTLFQIISEVFLIWVSAVSLYFLVKLVTKNNNEIKEKVTNNKIILITIISIWSLAITGNIIENVFYLAGLDDHVPVTISHRGVNDKNGVQNTIESLKKTAKLKPDYVEIDVHETKDNQFVIMHDENLKKLTGKDKRPKELTLNQLTKLIAKEDGYKGKVVSLDQYMQAAQKLKQKLLIEIKTTPNDSNEFLVKFNKKYGHEILKNHYQLQSLDYRVVTKMQQLNPKIETLYIQPYNLIYPQSVADGYSMEYSTLSSDFIWQAHLQNHVVYAWTVNNKSEMKKMMYEHVDGIITDNISMLNTAIKEFQSRQSYANRILNYMMAFPILD”, “failed”.
For “MNIGVIILAAGEGKRFGGDKLLAKIDNTPIIMRTIRIYGDLEKIIIVGKYVNEMLPLLMDQIVIYNPFWNEGISTSLKLGLRFFKDYDAVLVALGDMPFVTKEDVNKIINTFKPNCKAVIPTHKGERGNPVLISKSLFNEIEKLRGDVGARVILNKIKIEELCFIECSEGVLIDIDKKEDLMRLRDFHP”, the protein production result was “failed”.
